One assay deals with CGRP antigen. Description: cell-based or functional assay.
In a further assay the target is T1, Biotin-huCGRPaSA (human, not fully specified; biotin (position not given)).
T1 construct: exact construct ('aSA') not explained; also called Biotin CGRPaSA; full-length (1-37) CGRP
T1 peptide: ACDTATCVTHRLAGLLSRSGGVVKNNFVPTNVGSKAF
The assay is described as follows: ELISA, supernatant; relative to chimeric C245. Summed up:
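Plates coated with biotin-CGRPaSA at 1.0 μg/mL (90 min, 37°C) and blocked with 2% BSA. Humanized antibodies and chimeric C245 reference, 2.5-fold serial dilutions from 1000 ng/mL, bound 60 min at 37°C. Detection by HRP anti-human IgG (Fc), TMB 15 min, read at 450/620 nm.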

The values below come from patent US20260125454A1 (SHANGHAI JUNSHI BIOSCIENCES, published 2026).

As a reminder, the IC50 is the midpoint of a concentration-inhibition curve. A low value points to greater potency in that assay.

B1: hu74 (antibody, V domains shown)
VH: QVQLVQSGSELKKPGASVKVSCKASGYTFTDFNMHWVRQAPGQGLEWMGYIYPYNGDVVYNQNFTNRFVLSVDSSSSTAYLQISSLKAEDTAVYYCAREGLGGYWGQGTLVTVSS
VL: DIVLTQSPDSLAVSLGERATINCQASQNIDGNTYMNWYQQKPGQPPKVLIYSIFNLESGVPDRFSGSGSGTDFTLTISSLQAEDVAVYYCQQSNDYPYTFGQGTKLEIK
notes: 1F5 HC-4/2B8 LC2-1
As for B1, in the assay with CGRP antigen, the “IC50” value came to 73.9 ng/mL and the “relative activity (%) vs Ref(TEVA)” value was 58%. For the same molecule, the “Relative binding activity, %” value with Biotin-huCGRPaSA came to 112%.

B2: hu77 (antibody, V domains shown)
VH: QVQLVQSGSELKKPGASVKVSCKASGYTFTDFNMHWVRQAPGQGLEWMGYIYPYNGDVVYNQNFTNRFVLSVDSSSSTAYLQISSLKAEDTAVYYCAREGLGGYWGQGTLVTVSS
VL: DIVLTQSPDSLAVSLGERATINCKASQNIDYGGYSYMNWYQQKPGQPPKVLIYSVFNLESGVPDRFSGSGSGTDFTLTISSLQAEDVAVYYCQQSNEAPYTFGQGTKLEIK
notes: 1F5 HC-4/3H10 LC2-1
In the case of B2, in the assay with CGRP antigen, the “IC50” value is 77.8 ng/mL and the “relative activity (%) vs Ref(TEVA)” value was found to be 55%. Also, in the assay with Biotin-huCGRPaSA, the “Relative binding activity, %” value came out at 112%.

B3: hu66 (antibody, V domains shown)
VH: QVQLVQSGSELKKPGASVKVSCKASGYTFTDFNMHWVRQAPGQGLEWMGYIYPYNGDVVYNQNFTNRFVLSVDSSSSTAYLQISSLKAEDTAVYYCAREGLGGYWGQGTLVTVSS
VL: DIVLTQSPASLAVSPGQRATITCKASQNIDYDGYAYLNWYQQKPGQPPKVLIYSVFNLESGVPARFSGSGSGTDFTLTINPVEANDTANYYCQQSNEFPYTFGQGTKLEIK
notes: 1F5 HC-4/1A2 LC2-1
With B3, in the assay with CGRP antigen, the “IC50” value came to 56.6 ng/mL and the “relative activity (%) vs Ref(TEVA)” value was determined as 89%. The “Relative binding activity, %” value with Biotin-huCGRPaSA came out at 129%.

B4: hu76 (antibody, V domains shown)
VH: QVQLVQSGSELKKPGASVKVSCKASGYTFTDFNMHWVRQAPGQGLEWMGYIYPYNGDVVYNQNFTNRFVLSVDSSSSTAYLQISSLKAEDTAVYYCAREGLGGYWGQGTLVTVSS
VL: DIVLTQSPDSLAVSLGERATINCKASQNIDYDGYTYLNWYQQKPGQPPKVLIYSIFNLESGVPDRFSGSGSGTDFTLTISSLQAEDVAVYYCQQSNEVPYTFGQGTKLEIK
notes: 1F5 HC-4/3E5 LC-1
Turning to B4, in the assay with CGRP antigen, the “IC50” value was 64.9 ng/mL and the “relative activity (%) vs Ref(TEVA)” value was 66%. Also, the “Relative binding activity, %” value with Biotin-huCGRPaSA amounted to 112%.

B5: hu226 (antibody, V domains shown)
VH: QVQLVQSGAEVKKPGASVKVSCKASGYTFTGYTMNWVRQAPGQRLEWMGLINPYIGNTHYNQKFKDRVTFTVDRSSSTAYMELSSLRSEDTAVYYCARELDSGFDYWGQGTLVTVSS
VL: DVVMTQSPLSLPVTLGQPASISCRSSQNIVHSNGDTYLEWYQQRPGQSPRLLIYKVSNRFSGVPDRFSGSGSGTDFTLKISRVEAEDVGVYYCYQGSHVPWTFGQGTKLEIK
notes: 3C1 HC-2/3C1 LC-1
As for B5, in the assay with CGRP antigen, the “IC50” value amounted to 44.6 ng/mL and the “relative activity (%) vs C245” value is 53%. Further, the “Relative binding activity, %” value in the assay with Biotin-huCGRPaSA was found to be 65%.

B6: hu229 (antibody, V domains shown)
VH: QVQLVQSGAEVKKPGASVKVSCKASGYTFTGYTMNWVRQAPGQRLEWMGLINPYIGNTHYNQKFKDRVTFTVDRSSSTAYMELSSLRSEDTAVYYCARELDSGFDYWGQGTLVTVSS
VL: DVVMTQSPDSLAVSLGERATINCRSSQNIVHSNADTYLEWYQQKPGQPPKLLIYKVSNRFSGVPDRFSGSGSGTDFTLTISSLQAEDVAVYYCYQGSHVPWTFGQGTKLEIK
notes: 3C1 HC-2/3C1 LC-4
As for B6, in the assay with CGRP antigen, the “IC50” value amounted to 85.1 ng/mL and the “relative activity (%) vs C245” value is 28%. The “Relative binding activity, %” value with Biotin-huCGRPaSA turned out to be 48%.

B7: hu235 (antibody, V domains shown)
VH: QVQLVQSGAEVKKPGASVKVSCKASGYTFTGYTMNWVRQAPGQGLEWMGLINPYIGNTHYNQKFKDRVTFTVDRSSSTAYMELSRLRSDDTAVYYCARELDSGFDYWGQGTLVTVSS
VL: DVVMTQTPLSLSVTPGQPASISCRSSQNIVHSNGDTYLEWYLQKPGQSPQLLIYKVSNRFSGVPDRFSGSGSGTDFTLKISRVEAEDVGVYYCYQGSHVPWTFGQGTKLEIK
notes: 3C1 HC-4/3C1 LC-2
On to B7, for which, in the assay with CGRP antigen, 61.9 ng/mL corresponded to half-maximal inhibition (IC50) and the “relative activity (%) vs C245” value was 45%. In addition, the “Relative binding activity, %” value with Biotin-huCGRPaSA amounted to 74%.

B8: hu227 (antibody, V domains shown)
VH: QVQLVQSGAEVKKPGASVKVSCKASGYTFTGYTMNWVRQAPGQRLEWMGLINPYIGNTHYNQKFKDRVTFTVDRSSSTAYMELSSLRSEDTAVYYCARELDSGFDYWGQGTLVTVSS
VL: DVVMTQTPLSLSVTPGQPASISCRSSQNIVHSNGDTYLEWYLQKPGQSPQLLIYKVSNRFSGVPDRFSGSGSGTDFTLKISRVEAEDVGVYYCYQGSHVPWTFGQGTKLEIK
notes: 3C1 HC-2/3C1 LC-2
As for B8, in the assay with CGRP antigen, the midpoint of inhibition, the IC50, lay at 36.8 ng/mL and the “relative activity (%) vs C245” value came out at 64%. In the assay with Biotin-huCGRPaSA, the “Relative binding activity, %” value was determined as 64%.

B9: hu222 (antibody, V domains shown)
VH: QVQLVQSGAEVKKPGASVKVSCKASGYSFTGYTMNWVRQAPGQRLEWMGLINPYIGNTHYNQKFKDRVTFTVDRSSSTAYMELSSLRSEDTAVYYCARELDSGFDYWGQGTLVTVSS
VL: DVVMTQSPLSLPVTLGQPASISCRSSQNIVHSNGDTYLEWYQQRPGQSPRLLIYKVSNRFSGVPDRFSGSGSGTDFTLKISRVEAEDVGVYYCYQGSHVPWTFGQGTKLEIK
notes: 3C1 HC-1/3C1 LC-1
For B9, in the assay with CGRP antigen, half-maximal inhibition (IC50) required 39 ng/mL and the “relative activity (%) vs C245” value amounted to 46%. The “Relative binding activity, %” value in the assay with Biotin-huCGRPaSA amounted to 65%.

B10: hu223 (antibody, V domains shown)
VH: QVQLVQSGAEVKKPGASVKVSCKASGYSFTGYTMNWVRQAPGQRLEWMGLINPYIGNTHYNQKFKDRVTFTVDRSSSTAYMELSSLRSEDTAVYYCARELDSGFDYWGQGTLVTVSS
VL: DVVMTQTPLSLSVTPGQPASISCRSSQNIVHSNGDTYLEWYLQKPGQSPQLLIYKVSNRFSGVPDRFSGSGSGTDFTLKISRVEAEDVGVYYCYQGSHVPWTFGQGTKLEIK
notes: 3C1 HC-1/3C1 LC-2
Turning to B10, in the assay with CGRP antigen, the “IC50” value came to 35.4 ng/mL and the “relative activity (%) vs C245” value was determined as 51%. The “Relative binding activity, %” value in the assay with Biotin-huCGRPaSA worked out at 71%.

B11: hu228 (antibody, human IgG4 S228P, kappa, V domains shown)
VH: QVQLVQSGAEVKKPGASVKVSCKASGYTFTGYTMNWVRQAPGQRLEWMGLINPYIGNTHYNQKFKDRVTFTVDRSSSTAYMELSSLRSEDTAVYYCARELDSGFDYWGQGTLVTVSS
VL: DVVMTQSPDSLAVSLGERATINCRSSQNIVHSNGDTYLEWYQQKPGQPPKLLIYKVSNRFSGVPDRFSGSGSGTDFTLTISSLQAEDVAVYYCYQGSHVPWTFGQGTKLEIKR
Turning to B11, in the assay with CGRP antigen, the “IC50” value stood at 26.7 ng/mL and the “relative activity (%) vs C245” value was 88%. For the same molecule, the “Relative binding activity, %” value in the assay with Biotin-huCGRPaSA was 68%.

B12: hu230 (antibody, V domains shown)
VH: QVQLVQSGSELKKPGASVKVSCKASGYTFTGYTMNWVRQAPGQGLEWMGLINPYIGNTHYNQKFKDRFVFSVDRSSSTAYLQISSLKAEDTAVYYCARELDSGFDYWGQGTLVTVSS
VL: DVVMTQSPLSLPVTLGQPASISCRSSQNIVHSNGDTYLEWYQQRPGQSPRLLIYKVSNRFSGVPDRFSGSGSGTDFTLKISRVEAEDVGVYYCYQGSHVPWTFGQGTKLEIK
notes: 3C1 HC-3/3C1 LC-1
In the case of B12, in the assay with CGRP antigen, the “IC50” value was determined as 46.4 ng/mL and the “relative activity (%) vs C245” value amounted to 56%. The “Relative binding activity, %” value with Biotin-huCGRPaSA was 64%.

B13: hu234 (antibody, V domains shown)
VH: QVQLVQSGAEVKKPGASVKVSCKASGYTFTGYTMNWVRQAPGQGLEWMGLINPYIGNTHYNQKFKDRVTFTVDRSSSTAYMELSRLRSDDTAVYYCARELDSGFDYWGQGTLVTVSS
VL: DVVMTQSPLSLPVTLGQPASISCRSSQNIVHSNGDTYLEWYQQRPGQSPRLLIYKVSNRFSGVPDRFSGSGSGTDFTLKISRVEAEDVGVYYCYQGSHVPWTFGQGTKLEIK
notes: 3C1 HC-4/3C1 LC-1
On to B13, for which, in the assay with CGRP antigen, the “IC50” value amounted to 42.9 ng/mL and the “relative activity (%) vs C245” value was 65%. For the same molecule, the “Relative binding activity, %” value in the assay with Biotin-huCGRPaSA came out at 50%.
